B1: CPEB3 Ribozyme (parent)
chain: UAACAGGGGGCCACAGCAGAAGCGUUCACGUCGCAGCCCCUGUCAGAUUCUGGUGAAUCUGCGAAUUCUGCUGUAUAUCUC

Variants of B1 are the subject of the data set. Kind of data set: self-cleavage, relative activity (ratio to wild type); higher = more cleavage; in vitro, sequencing. Summed up: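 Libraries of CPEB3 self-cleaving ribozyme mutants came from rounds of error-prone PCR and carried barcodes, which DNA sequencing matched to variants. In vitro transcription used T7 RNA polymerase at 37°C for 5 hours, with a further 15 min in DNase I before EDTA stopped the reaction; the ribozymes cleaved during both steps. The RNA was reverse transcribed with template switching and sequenced on Illumina. Relative activity is the cleaved/total read fraction of a variant divided by that of the unmutated ribozyme, averaged over three batches with at least 5 reads.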
For UAACAGGGGGCCACAGCAGAAGCGUUCACGUCGCAGCCCCUGUCAGAUUCUGGUGAAUCUGCGAACACUGCUGUAUAUCUC [U66C U67A], the self-cleavage turned out to be 0.25.

As for UAACAGGGGGCCAGAGCAGAGGCGUUCACGUCGCAGCCCCUGUCAGAUUCUGGUGAAUCUGCGAAUUCUGCUGUAUAUCUC [C14G A21G], the self-cleavage was found to be 0.45.

For the variant UAACAGGGGGCCACAGCAGAAGCGUUCACGUCGCAGCCCCUGUCAGAUUCUGGUGAAUCGGCGAAUUCAGCUGUAUAUCUC [U60G U69A], the self-cleavage was 0.39.

Consider UAACAGGUGGCCACAGCAGAAGCGUUCACGUCGCAGCCCCUGUCAGAUUCUGGUGAAUCUGCGAAUUCUGGUGUAUAUCUC [G8U C71G], for which the self-cleavage was 0.07.

As for UAACAGGGGGCCACAGCAGAAGCGUUCUCGUCGCAGCCCAUGUCAGAUUCUGGUGAAUCUGCGAAUUCUGCUGUAUAUCUC [A28U C40A], the self-cleavage came out at 0.47.

Regarding UAACAGGGGGCCACAGCAGAAGCGUUCACGCCGCAGCCCCUGUCAGAUUCUGGUGAAUCUGCGGAUUCUGCUGUAUAUCUC [U31C A64G], the self-cleavage was determined as 0.64.

As to UAACAGGGGGCCACAGCAGAAGCGUUCACGUAGCGGCCCCUGUCAGAUUCUGGUGAAUCUGCGAAUUCUGCUGUAUAUCUC [C32A A35G], the self-cleavage came to 0.87.

As for UAACAGGGGGCCACAGCAGAAGCGUUCACGUCGCAGCACCUGUCAGAUUCUGGUGAAUCCGCGAAUUCUGCUGUAUAUCUC [C38A U60C], the self-cleavage is 0.37.

Consider UAAAAGGGGGCCACAGCUGAAGCGUUCACGUCGCAGCCCCUGUCAGAUUCUGGUGAAUCUGCGAAUUCUGCUGUAUAUCUC [C4A A18U], for which the self-cleavage was found to be 0.45.

As to UAACAGGGGGCCACAGCAGAAGUGUUCACGUCGCAGCCCCUGUCAGAUUCUGGUGAAUCUGGGAAUUCUGCUGUAUAUCUC [C23U C62G], the self-cleavage stood at 0.09.

Consider UAACAGAGGGCCACAGCAGAAGCGUUCACGUCGCAGCCCCUGUCAGAUUCUGGUGAAUCUGCGAAUUCUGCUGCAUAUCUC [G7A U74C], for which the self-cleavage was 0.5.

For the variant UAACAGGGGGCCACAGCAGACGCGUUCACGUCGCAGCCCCUGACAGAUUCUGGUGAAUCUGCGAAUUCUGCUGUAUAUCUC [A21C U43A], the self-cleavage came to 0.35.

For AAACAGGGGGCCACAGCAGAAGCGUUCACGUCGCAGCCCCUGUCAGAUUCUGGUGAAUCUGCGACUUCUGCUGUAUAUCUC [U1A A65C], the self-cleavage came to 0.12.

Take UAACAGGGGGCCACAGCAGAAGCGUUCACGUCGCAGCCAUUGUCAGAUUCUGGUGAAUCUGCGAAUUCUGCUGUAUAUCUC [C39A C40U]: the self-cleavage was 0.38.

On to UAACAGCGGGCCACAGCAGAAGCGUUCACGUCGCAGCCCCUGUCAGAUUCUGGUGAAUCUGCGAAUUCUGCUGUAUAUCUC [G7C], for which the self-cleavage worked out at 0.29.

For the variant UAGCAGGGGGCCACAGCAGAAGCGUUCACGUCGCAGCCCAUGUCAGAUUCUGGUGAAUCUGCGAAUUCUGCUGUAUAUCUC [A3G C40A], the self-cleavage is 0.32.

For the variant UAACAGGGGGCCACAGCAGAAGCGUUCUCGUCUCAGCCCCUGUCAGAUUCUGGUGAAUCUGCGAAUUCUGCUGUAUAUCUC [A28U G33U], the self-cleavage stood at 0.14.

Regarding UAACAGGGGGUCACAGCAUAAGCGUUCACGUCGCAGCCCCUGUCAGAUUCUGGUGAAUCUGCGAAUUCUGCUGUAUAUCUC [C11U G19U], the self-cleavage amounted to 0.07.

With UAACAGGGGGCCACAGCAGAAGCGCUCAAGUCGCAGCCCCUGUCAGAUUCUGGUGAAUCUGCGAAUUCUGCUGUAUAUCUC [U25C C29A], the self-cleavage amounted to 0.3.

Consider UAACAGGGGGCCACAGCUGAAGCGUUCACGUCGCAGCCCCUGUCAGAUUCUGUUGAAUCUGCGAAUUCUGCUGUAUAUCUC [A18U G53U], for which the self-cleavage came to 0.45.

UAACAGGGGGCCACAGCAGAAGCGUUCACGUCGCAGCCCCUGUCAGAUUCUGCUGAAUCUGGGAAUUCUGCUGUAUAUCUC [G53C C62G]: the self-cleavage stood at 0.29.

For UAACAGGGAGCCACAGCAGAAGCGCUCACGUCGCAGCCCCUGUCAGAUUCUGGUGAAUCUGCGAAUUCUGCUGUAUAUCUC [G9A U25C], the self-cleavage came to 0.21.

Turning to UAACAGGGGGCCACAGCAGGAGCGUUCACGUCGCAGCCCCUGUCAGAUUCUGGUGAAUCUGCGAAUUCUGUUGUAUAUCUC [A20G C71U], the self-cleavage was found to be 0.56.

For UAACAGAGGGCCACAGCAGAAGCGUUCACGUCGCAGCCCCUGUCAGAUUCUGGUGAAACUGCGAAUUCUGCUGUAUAUCUC [G7A U58A], the self-cleavage came out at 0.27.

On to UGACAGGGGGCCACAGCAGAAGCGUUCACGUCGCAGCCCCUGUCAGAUUCUGGUGAAUCUGCGAAUUCUGCUGUUUAUCUC [A2G A75U], for which the self-cleavage was determined as 0.84.

On to UGACAGGGGGCCACAGCAGAAGCGUUCACGUCGCAGCCCCUGUCAGAUUCUGGUGAAUCUGCUAAUUCUGCUGUAUAUCUC [A2G G63U], for which the self-cleavage came to 0.62.

In the case of UAACAGGGGGCCACAGCAGUAGCGUUCACGUCGCAGCCCCUGUCAGAUUCUGGUGAAUCUGCGAAUACUGCUGUAUAUCUC [A20U U67A], the self-cleavage was determined as 1.16.

On to UAACAGGGGGCCACAGCAGAAGCGUUCACGUCGCAGGCCCUGUCAGAUUCUGGUGAAUCUGCGAAUUCUGCUGCAUAUCUC [C37G U74C], for which the self-cleavage turned out to be 0.9.

For UAACAGGGGGCCACAGCUGAAGCGUUCACGUCGCAGCCCCUGUCAGAUUCUGGUGAAUCUGCGAGUUCUGCUGUAUAUCUC [A18U A65G], the self-cleavage stood at 0.28.

For the variant UAACAGGGGGCCACAGCAGAAGCGUUCACGUCGCAGACCCAGUCAGAUUCUGGUGAAUCUGCGAAUUCUGCUGUAUAUCUC [C37A U41A], the self-cleavage was found to be 0.19.

UAACAGGGGGCCACAGCAGAAGCGAUCACGUCGCAGCCCCUGUCAGAUUCUGGUGAAUCUGCGAAUUCUGCCGUAUAUCUC [U25A U72C]: the self-cleavage came to 0.22.

As for UAACAGGGGGCCACAGCAGAAGCGUUCACGCCGCAGCCCCUGUCAGAUGCUGGUGAAUCUGCGAAUUCUGCUGUAUAUCUC [U31C U49G], the self-cleavage amounted to 0.3.

For the variant UAACAGGGGGCCACAGCAGAAGCGUUCACGUCGCACCCCCUGUCAGAUUCUGGUGAAUCUGCGAAUUCUGCGGUAUAUCUC [G36C U72G], the self-cleavage was determined as 0.19.

As to UAACAGGGGGCCACAGCAGAAGCGUUCACGUCGCAGCCCCUGUCAGAUUCUGGUGAAUCUGCGUAAUCUGCUGUAUAUCUC [A64U U66A], the self-cleavage was 0.27.

These data come from the RNAGym collection of RNA variant scans (doi:10.1093/nar/gkz1192).
